Test results taken from patent publication US20090239794A1, “HCV F PROTEIN AND USES THEREOF” (priority 2004, published 2009).
“And” between values parts separate entries of the source, which are not always exact repeats. Equal entries are not always repeated.

System: C57Bl/6 mice
Experiment: Protocol 1: ARFP immunization of mice, total anti-ARFP Ig ELISA
[1] = individual mice 31-45, 1st immunization (day 0), listed as ARFP
[2] = individual mice 31-45, 2nd immunization (day 13), listed as ARFP
[3] = individual mice 31-45, 3d immunization (day 35), listed as ARFP
[4] = individual mice 31-45, Sacrifice (day 53), listed as ARFP

Description: Plates were blocked for 2 h/4° C. with 200 μl per well of 5 mg/ml bovine serum albumin (BSA) in 100 mM NaHCO3 pH 8.6, and were washed 6 times with 10 mM tris base, 150 mM NaCl, 0.05% Tween-20 pH 7.4 (1×TBST). […] After 90 min, optical density was measured at 410 nm in a MR7000 spectrophotometer (Dynatec, Chantilly, Va.).
In a first set of experiments, induction of ARFP-specific humoral (i.e. antibody) immune responses was tested as follows.
Protocol 1. […] Ten 5-week old female C57Bl/6 mice were injected with 100 μl phosphate-buffered saline and were used as controls. An identical immunization procedure was repeated on day 13, and again on day 35. 200 μl of blood was obtained by maxillary bleeding prior to each immunization (days 0, 13, and 35). Mice were sacrificed by CO2 asphyxiation and bled by cardiac puncture on day 53. All blood samples were centrifuged and sera was collected and frozen at −80° C. until used. Total immunoglobulin (Ig) responses (IgA, IgM, and IgG) were tested by enzyme-linked immuno-sorbent assay (ELISA) as described in Example 1, except that alkaline phosphatase-conjugated anti-mouse polyvalent immunoglobulins (G, A, M) (A-0162, Sigma, St. Louis, Mo.) were used instead of alkaline phosphatase-conjugated monoclonal anti-human IgG (A-2064, Sigma). […] Optical density was measured at 410 nm (Table 4). […] The ELISA threshold value was set at 3 times the OD410 measured in the negative control with the highest readout (highlighted in Table 6).

B1: Fmut8Δ11: truncated recombinant HCV-1a F protein lacking the first 11 N-terminal residues shared with core; SEQ ID NO: 12; produced in E. coli (protein)
chain: PNVTPTVAHRTSSSRVAVRSLVEFTCCRAGALDWVCARRGRLPSGRNLEVDVSLSPRHVGPRAGPGLSPGTLGPSMAMRAADGRDGSCLPVALGLVGAPQTPGVGRAIWVRSSIPSRAASPTSWGTYRSSAPPLEALPGPWRMASGFWRTA
modifications: Hepatitis C virus
Before the 2nd immunization
  ARFP-specific Ig titer, mean+/−standard deviation: 10.00+/−27.08
Day 35
  anti-ARFP Ig titer, mean+/−standard deviation: 1400+/−419.5
Day 53
  anti-ARFP Ig titer, mean+/−standard deviation: 1547+/−199.6
Individual mice 31-45, 1st immunization (day 0)
  Titer (anti-ARFP Ig ELISA): 0
[1]
  ELISA OD410, serum dilution 1/50: 0.211 and 0.209 and 0.199 and 0.218 and 0.323 and 0.278 and 0.229 and 0.166 and 0.236 and 0.243 and 0.247 and 0.208 and 0.206 and 0.205 and 0.217
  ELISA OD410, serum dilution 1/100: 0.128 and 0.115 (2×) and 0.174 and 0.208 and 0.186 and 0.171 and 0.152 and 0.161 (2×) and 0.145 and 0.134 and 0.132 and 0.142 and 0.127
  ELISA OD410, serum dilution 1/200: 0.123 and 0.150 and 0.128 and 0.136 (2×) and 0.114 and 0.111 and 0.121 and 0.113 (2×) and 0.104 and 0.117 and 0.164 and 0.144 and 0.140
  ELISA OD410, serum dilution 1/400: 0.132 and 0.164 and 0.114 and 0.118 and 0.116 and 0.121 and 0.133 and 0.115 and 0.104 and 0.110 and 0.120 and 0.128 and 0.191 and 0.138 and 0.126
  ELISA OD410, serum dilution 1/800: 0.119 and 0.138 and 0.113 and 0.118 and 0.115 (2×) and 0.117 and 0.128 and 0.108 and 0.103 and 0.105 and 0.123 and 0.134 and 0.137 and 0.114
  ELISA OD410, serum dilution 1/1600: 0.138 and 0.122 and 0.109 (2×) and 0.110 and 0.116 and 0.124 and 0.108 and 0.106 and 0.107 and 0.105 and 0.119 and 0.129 and 0.127 and 0.114
[2]
  ELISA OD410, serum dilution 1/50: 0.732 and 0.272 and 0.750 and 0.293 and 0.231 and 0.965 and 0.137 and 0.916 and 0.132 and 0.13 and 0.186 and 0.049 and 0.046 and 0.048 and 0.045
  ELISA OD410, serum dilution 1/100: 0.306 and 0.117 and 0.197 and 0.157 and 0.138 and 0.890 and 0.113 and 0.742 and 0.112 and 0.116 and 0.105 and 0.045 and 0.053 and 0.048 and 0.046
  ELISA OD410, serum dilution 1/200: 0.165 and 0.113 and 0.166 and 0.127 and 0.160 and 0.815 and 0.108 and 0.441 and 0.107 (2×) and 0.111 and 0.102 and 0.798 and 0.116 and 0.123
  ELISA OD410, serum dilution 1/400: 0.147 and 0.110 (2×) and 0.154 and 0.121 and 0.117 and 0.677 and 0.328 and 0.107 and 0.105 and 0.115 and 0.101 and 0.279 and 0.103 and 0.120
  ELISA OD410, serum dilution 1/800: 0.124 and 0.106 (5×) and 0.137 and 0.123 and 0.125 and 0.454 and 0.105 and 0.219 and 0.099 and 0.097 and 0.273
  ELISA OD410, serum dilution 1/1600: 0.120 (2×) and 0.118 (2×) and 0.119 and 0.590 and 0.104 and 0.171 and 0.105 and 0.108 and 0.103 and 0.096 and 0.223 and 0.110 (2×)
  Titer (anti-ARFP Ig ELISA): 0 (13×) and 100 and 50
[3]
  ELISA OD410, serum dilution 1/50: 3.652 and 3.551 and 3.142 and 3.623 and 3.509 and 3.334 and 3.530 and 3.887 and 3.464 and 3.796 and 1.628 and 1.467 and 2.140 and 2.336 and 2.453
  ELISA OD410, serum dilution 1/100: 3.642 and 2.683 and 3.700 and 2.841 and 3.563 and 3.625 and 3.306 and >4.000 (2×) and 3.808 and 1.093 and 1.941 and 2.487 and 1.264 and 2.058
  ELISA OD410, serum dilution 1/200: 3.616 and 2.046 and 3.630 and 2.088 and 3.556 and 3.596 and 2.436 and 3.957 and 3.541 and >4.000 and 3.494 and 2.657 and 1.722 and 0.993 and 1.772
  ELISA OD410, serum dilution 1/400: 3.569 and 1.681 and 3.296 and 1.522 and 3.465 and 3.590 and 1.859 and 3.799 and 3.582 and 3.896 and 3.238 and 2.397 and 1.929 and 0.725 and 1.607
  ELISA OD410, serum dilution 1/800: 3.434 and 1.072 and 3.166 and 0.937 and 3.213 and 3.438 and 1.297 and 3.425 and 3.053 and 2.776 and 2.442 and 2.015 and 1.185 and 0.508 and 1.517
  ELISA OD410, serum dilution 1/1600: 3.521 and 0.641 and 3.190 and 0.590 and 3.181 and 3.455 and 0.931 and 3.139 and 2.783 and 1.989 and 1.713 and 1.578 and 0.957 and 0.408 and 1.453
  Titer (anti-ARFP Ig ELISA): >1600 (12×) and 800 (2×) and 200
[4]
  ELISA OD410, serum dilution 1/50: 2.023 and 2.008 and 1.658 and 1.054 and 1.709 and 1.411 and 1.314 and 1.736 and 2.224 and 1.741 and 1.006 and 1.424 and 1.613 and 1.434 and 1.373
  ELISA OD410, serum dilution 1/100: 2.028 and 1.542 and 1.830 and 1.646 and 1.839 and 1.829 and 1.483 and 2.139 and 1.904 and 1.714 and 1.872 and 1.790 and 1.912 and 1.489 and 1.880
  ELISA OD410, serum dilution 1/200: 2.202 and 2.602 and 1.876 and 1.837 and 1.805 and 2.091 and 1.948 and 2.168 and 2.422 and 1.540 and 1.773 and 1.658 and 1.724 and 1.471 and 2.006
  ELISA OD410, serum dilution 1/400: 2.376 and 2.547 and 1.889 and 1.913 and 1.776 and 2.225 and 1.925 and 2.356 and 2.456 and 1.266 and 1.783 and 1.907 and 1.312 and 1.223 and 1.919
  ELISA OD410, serum dilution 1/800: 2.490 and 1.574 and 1.874 and 1.814 and 1.617 and 2.117 and 1.671 and 1.664 and 2.196 and 0.928 and 1.825 and 2.059 and 1.478 and 1.136 and 2.197
  ELISA OD410, serum dilution 1/1600: 2.209 and 1.970 and 2.157 and 1.987 and 1.674 and 2.269 and 1.574 and 1.671 and 1.659 and 0.648 and 1.749 and 2.062 and 1.233 and 1.157 and 1.672
  Titer (anti-ARFP Ig ELISA): >1600 (14×) and 800
